In article PMC6965710 one finds binding signal (Kd ratio unmodified/8-oxoG (selectivity)) data, which are given here for one sequence.

Where a chain is given by its changes, count along the chain named.

Common to all, as to experiment: EMSA
Holding throughout (conditions): 8-oxo-7,8-dihydroguanosine at positions 3,7,11,15,19,23

The target of data set [1] is T1, PNPase GFT S76G;F78T (Escherichia coli K12) (UniProt P05055).
T1 sequence: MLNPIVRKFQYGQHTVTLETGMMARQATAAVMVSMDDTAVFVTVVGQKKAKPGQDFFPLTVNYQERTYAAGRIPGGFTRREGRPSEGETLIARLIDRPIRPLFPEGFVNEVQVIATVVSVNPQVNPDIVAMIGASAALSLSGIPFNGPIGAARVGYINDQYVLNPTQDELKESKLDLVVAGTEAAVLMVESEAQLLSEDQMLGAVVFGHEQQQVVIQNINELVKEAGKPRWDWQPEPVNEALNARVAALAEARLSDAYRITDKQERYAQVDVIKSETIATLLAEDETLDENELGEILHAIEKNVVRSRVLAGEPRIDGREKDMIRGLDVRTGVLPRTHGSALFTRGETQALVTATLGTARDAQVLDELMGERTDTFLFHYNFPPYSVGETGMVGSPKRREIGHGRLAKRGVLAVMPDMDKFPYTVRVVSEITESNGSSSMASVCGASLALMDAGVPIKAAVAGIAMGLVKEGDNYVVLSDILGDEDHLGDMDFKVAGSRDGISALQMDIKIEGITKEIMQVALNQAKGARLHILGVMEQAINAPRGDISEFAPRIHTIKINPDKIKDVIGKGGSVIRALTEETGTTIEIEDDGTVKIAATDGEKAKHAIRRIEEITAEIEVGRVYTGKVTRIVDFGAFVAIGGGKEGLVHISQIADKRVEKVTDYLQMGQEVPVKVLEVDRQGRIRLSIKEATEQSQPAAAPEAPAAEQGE

In data set [2] the target is T2, PNPase NYM S76N;F77Y;F78M (Escherichia coli K12) (UniProt P05055).
T2 sequence: T1 sequence with G76N, F77Y, T78M

In data set [3] the target is T3, PNPase NFH S76N;F78H (Escherichia coli K12) (UniProt P05055).
T3 sequence: T1 sequence with G76N, T78H

The target of data set [4] is T4, PNPase wild type (SFF) (Escherichia coli K12) (UniProt P05055).
T4 sequence: T1 sequence with G76S, T78F

Turning to “NNGNNNGNNNGNNNGNNNGNNNGN [8-oxoG RNA 24-mer [NN(8-oxoG)N]6]”, the binding signal (Kd ratio unmodified/8-oxoG (selectivity)) was 2.3 in data set [1], 2.8 in data set [2], 2.5 in data set [3] and 1.8 in data set [4].
